This note sets out measurements from the supplement of paper PMC9170038.

The test system of the data set is MS2 coat protein. The data set is described as follows: apparent KD of MS2 coat protein; designed switch direction (-1 OFF switch, 1 ON switch): 1; higher = weaker reporter binding. The method in brief:
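Transcription of designed RNA switches on Illumina chips was done by stalled E. coli RNA polymerase. SNAP-549-labelled MS2 coat protein was then titrated in doubling steps from 0.7 or 1.5 nM to 3 µM, with steps of 0.8–1.5 h at the lowest and 10–20 min at the highest concentration. The per-design median over clusters of curve-fitted normalised fluorescence is reported as apparent KD.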

The mark [1] stands for this setting: Eterna round: R95, input ligand: FMN 200 uM.
Where [2] appears, read: Eterna round: R95, input ligand: microRNA oligo, concentration not stated.
The mark [3] stands for this setting: Eterna round: R95, input ligand: none.
Setting [4] is: input ligand: microRNA oligo, concentration not stated.

Regarding “AUAAAACAUGAGGAUCACCCAUGUCAACAAAGUCGAGGAUAUGGGCAAAUAAAAUAUGAACCAGAAGGCGAAUAAU [salish99_ss1_r3_019] (puzzle: Same State 1)”, the “apparent KD of MS2 coat protein” value runs as follows: under setting [1], 0.0358 µM; under setting [2], 0.221 µM; under setting [3], 0.31 µM.

Turning to “AUAAAACAUGAGGAUCACCCAUGUCAACAAAGUCGAGGAUAUGGGCAAUUAAAAUAAGAACCAGAAGGCGAAUAAU [salish99_ss1_r3_025] (Eterna round: R96, puzzle: Same State 1)”, the “apparent KD of MS2 coat protein” value is, setting by setting: (input ligand: FMN 200 uM) 0.0357 µM; under setting [4], 0.214 µM; (input ligand: none) 0.249 µM.

“AUAAAACAUGAGGAUCACCCAUGUCAACAAAGUCGAGGAUAUGGGCAAUUAAAAUAAGAACCAGAAGGCGAAUAAU [salish99_ss1_r3_025] (puzzle: Same State 1)”: the “apparent KD of MS2 coat protein” value by setting is: under setting [1], 0.0264 µM; under setting [2], 0.138 µM; under setting [3], 0.4 µM.

Regarding “AUAAAACAUGAGGAUCACCCAUGUCAACAAAGUCGAGGAUAUGGGUAAAUAAAAUAAGAACCAGAAGGCGAAUAAU [salish99_ss1_r3_028] (Eterna round: R96, puzzle: Same State 1)”, the “apparent KD of MS2 coat protein” value was 0.122 µM (input ligand: FMN 200 uM), 0.713 µM under setting [4] and 0.941 µM (input ligand: none).

Regarding “AUAAAACAUGAGGAUCACCCAUGUCAACAAAGUCGAGGAUAUGGGUAAAUAAAAUAAGAACCAGAAGGCGAAUAAU [salish99_ss1_r3_028] (puzzle: Same State 1)”, the “apparent KD of MS2 coat protein” value is, setting by setting: under setting [1], 0.0835 µM; under setting [2], 0.283 µM; under setting [3], 0.163 µM.

Regarding “AUAAAACAUGAGGAUCACCCAUGUCAUCAAAGUCGAGGAUAUGGGCAAAUAAAAUAAGAACCAGAAGGCGAAUAAU [salish99_ss1_r3_043] (puzzle: Same State 1)”, the “apparent KD of MS2 coat protein” value runs as follows: under setting [1], 0.106 µM; under setting [2], 0.298 µM; under setting [3], 0.501 µM.

Turning to “AUAAAUAAACAUGAGGAUCACCCAUGUGUUAUAUAAGCAAAUAAAUAAAUAAAUAAAUAAAUAAAUAAAUAAAUAAA [RNA Sequence] (puzzle: Sensor for hsa-mir-208a version 2)”, the “apparent KD of MS2 coat protein” value under setting [1] was 0.0255 µM, the “apparent KD of MS2 coat protein” value under setting [2] is 0.0261 µM and the “apparent KD of MS2 coat protein” value under setting [3] was 0.0292 µM.

With “AUAAAUAACACAGGAUAUCCACACGAAUAGUGCGGAGAAGGGUGAACGUCGGCUCUCGCCAACAUGAGGAUCACCCAUGUAAAA [Tediissobe] (Eterna round: R96, puzzle: Same State NG 1)”, the “apparent KD of MS2 coat protein” value was determined as 0.0644 µM (input ligand: FMN 200 uM), 0.0127 µM under setting [4] and 0.0315 µM (input ligand: none).

For “AUAACACUGGCAGGAUAUGGGAUUGGAAGUGUUCCAGAAGGGCCAGAACGGCGAUGGACAUGAGGAUCACCCAUGUCUUAGCCU [MOD Powerstrip SSNG 1.4 (Unstable)] (Eterna round: R96, puzzle: Same State NG 1)”, the “apparent KD of MS2 coat protein” value reads like this: (input ligand: FMN 200 uM) 0.013 µM; under setting [4], 0.00766 µM; (input ligand: none) 0.00948 µM.

For “AUAAGAAACACAGGAUAUACCGUGCUUAACGCGGUAGAAGGGUGGGACAUGAGGAUCACCCAUGUGGUCCGGGCGCCGGACCGC [Erarlaa] (Eterna round: R96, puzzle: Same State NG 1)”, the “apparent KD of MS2 coat protein” value worked out at 0.934 µM (input ligand: FMN 200 uM), 0.296 µM under setting [4] and 0.309 µM (input ligand: none).

For the sequence “AUAAGGCAAGCUUUUUUCUCGUAAUGUAAACAUGAGGAUCACCCAUGUGCCCAUCCUGGAUCUUUGGAUCGCAGAAC [Usbexe] (puzzle: Sensor for hsa-mir-208a)”, the “apparent KD of MS2 coat protein” value by setting is: under setting [1], 0.0346 µM; under setting [2], 0.0259 µM; under setting [3], 0.0407 µM.
